Assay [1] addresses T1, human IL4Rα expressed on 293F-IL4Rα cell surface (human, UniProt P24394 26-825).
T1 construct: whole, on cells; also called human IL4Rα-expressing cells; cell surface IL4R
Kind of assay: cell-based blocking FACS on 293F-IL4Rα cells; blocked ligand biotin human IL4.

Assay [2] concerns the target T2, recombinant human IL4Rα-his (human, UniProt P24394 26-231, limits assumed, biotin-labeled in the capture ELISA).
T2 construct: In-house made; not shown: His tag at the C-terminus
Kind of assay: dual-binding ELISA: coated human IL4Rα-his, antibody titrated, detection with biotin human TSLP-his and SA-HRP; signal needs both antigens bound. (ELISA stands for enzyme-linked immunosorbent assay.)

For assay [3], the target named is T2, recombinant human IL4Rα-his. Kind of assay: SPR Biacore T200; antibody captured on anti-human IgG CM5 chip, IL4Rα-his as analyte; 1:1 Langmuir fit. In a few lines: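 Antibodies captured on anti-human IgG CM5 chip (bispecifics at 66.67 nM, controls 10 μg/mL), then serially diluted recombinant human IL4Rα-his (C-terminal His tag) in HBS EP flowed at 30 μL/min. Association and dissociation curves fit to 1:1 Langmuir model.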
A general note: Surface plasmon resonance follows binding to a sensor surface in real time, without labels.

Assay [4] addresses T3, recombinant human TSLP-his (human, UniProt Q969D9 29-159, biotin-labeled in the ELISAs).
T3 construct: In-house made; not shown: His tag at the C-terminus
Kind of assay: SPR Biacore; TSLP-his amine-coupled to CM5 chip, antibody as analyte; 1:1 Langmuir fit. The procedure:
Un-reacted moieties on the biosensor surface were blocked with ethanolamine. Then, serially diluted purified bispecific antibodies and the controls (2-fold serial dilution in HBS-EP⁺ buffer starting at 100 nM) were respectively flowed onto the chip at a flow rate of 30 μL/min. The antigen-antibody association kinetics was followed for 4 minutes and the dissociation kinetics was followed for 13 minutes.

In assay [5] the target is T3, recombinant human TSLP-his. Kind of assay: competitive ELISA: antibody pre-mixed with biotin human TSLP-his; blocked binding to coated TSLPR-Fc/IL7Ra-Fc. The procedure:
Briefly, 100 μL human TSLPR-Fc proteins (SEQ ID NO: 34-SEQ ID NO: 38 fusion, prepared in-house) at 1 μg/mL in PBS, and 100 μL human IL7Ra-Fc proteins (SEQ ID NO: 35-SEQ ID NO: 38 fusion, prepared in-house) at 1 μg/mL in PBS were coated on 96-well micro plates overnight at 4° C. The next day, plates were washed with wash buffer (PBS+0.05% Tween-20, PBST), and blocked with 5% w/v non-fatty milk in PBST for 2 hours at 37° C. Plates were then washed again using wash buffer.
After incubation at 37° C. for 40 minutes, plates were washed 4 times using wash buffer. […] Plates were washed again using wash buffer. Finally, TMB was added and the reaction was stopped using 1M H₂SO₄. The absorbance was read on a microplate reader using dual wavelength mode with 450 nm for TMB and 630 nm as the reference wavelength, then the OD (450-630) values were plotted against the antibody concentration. Data was analyzed using Graphpad Prism and IC₅₀ values were reported.

For assay [6], the target named is T2, recombinant human IL4Rα-his. Kind of assay: competitive ELISA: coated human IL4Rα-his, antibody titrated; blocked ligand biotin human IL4. As for the experimental part: Briefly, 100 μL human IL4Rα-his proteins (prepared in-house, IL4Rα of SEQ ID NO: 33 with C-terminal His tag) were coated on 96-well micro plates at 2 μg/mL in PBS overnight at 4° C. The next day, plates were washed with wash buffer (PBS+0.05% w/v Tween-20, PBST), and blocked with 5% w/v non-fatty milk in PBST for 2 hours at 37° C. Plates were then washed again using wash buffer. Serially diluted bispecific antibodies or the controls (starting at 100 nM with a 5-fold serial dilution) in 2.5% w/v non-fatty milk in PBST, 100 μL per well, were added to the IL4Rα bound plates, and incubated at 37° C. for 40 minutes. […] Plates were washed again using wash buffer. Thereafter, the plates were added with 100 μL/well of streptavidin conjugated HRP (1:10000 dilution in PBST buffer, Jackson Immunoresearch, Cat #016-030-084) and incubated for 40 minutes at 37° C. Plates were washed again using wash buffer. Finally, TMB was added and the reaction was stopped using 1M H₂SO₄, and the absorbance was read at 450 nm. Data was analyzed using Graphpad Prism and IC₅₀ values were reported.

B1: BSI-502-003 (bispecific antibody, human IgG1, kappa)
heavy: EVQLVESGGGLVQPGGSLRLSCAASGFTFSTYGMSWVRQAPGKGLVWVATINSNGGSTSYPDSVKGRFTISRDNAKNTLYLQMNSLRAEDTAVYYCARFFRFRNAMDYWGQGTLVTVSSGGGGSGGGGSGGGGSGGGGSDIQMTQSPSSLSASVGDRVTITCRTSENIYSYLAWYQQKPGKAPKFLVYNAKTLAEGVPSRFSGSGSGTDFTLTISSLQPEDFATYYCQHYYGPPTWTFGQGTKVEIKGGGGSGGGGSQVQLVQSGAEVKKPGASVKVSCKASGYTFTTYWMHWVRQAPGQGLEWMGVIDPSDSDTTYNQKFKGRVTMTRDTSTSTVYMELSSLRSEDTAVYYCTRSLDGYYDYWGQGTLVTVSSASTKGPSVFPLAPSSKSTSGGTAALGCLVKDYFPEPVTVSWNSGALTSGVHTFPAVLQSSGLYSLSSVVTVPSSSLGTQTYICNVNHKPSNTKVDKKVEPKSCDKTHTCPPCPAPEAQGGPSVFLFPPKPKDTLYITREPEVTCVVVDVSHEDPEVKFNWYVDGVEVHNAKTKPREEQYNSTYRVVSVLTVLHQDWLNGKEYKCQVSNKALPAPIEKTISKAKGQPREPQVYTLPPSRDELTKNQVSLTCLVKGFYPSDIAVEWESNGQPENNYKTTPPVLDSDGSFFLYSKLTVDKSRWQQGNVFSCSVMHEALHNHYTQKSLSLSPG
light: DIQMTQSPSSLSASVGDRVTITCRPTENIYSYLAWYQQKPGKAPKLLIYFARTLAEGVPSRFSGSGSGTDFTLTISSLQPEDFATYYCQHHYGTPWTFGGGTKVEIKRTVAAPSVFIFPPSDEQLKSGTASVVCLLNNFYPREAKVQWKVDNALQSGNSQESVTEQDSKDSTYSLSSTLTLSKADYEKHKVYACEVTHQGLSSPVTKSFNRGEC
notes: hu1C5F12E9-V8 IgG with an anti-IL4R scFv (huC2C1A1A1-V15, VH-VL) at the N-terminus of the heavy chain; AQQ and YTE already stand in the entry
As usually defined, the IC50 is the concentration that gives 50% inhibition. One may read the EC50 as the midpoint of the concentration-response curve. The term Kd denotes the constant that tells how readily two partners part at equilibrium. What is called koff is a measure of how fast the partners let go of each other. Usually kon stands for the second-order rate constant of association. Regarding B1, the values for the IC50 in assay [1], in assay [5] and in assay [6] were 0.204 nM, 0.134 nM and 0.229 nM, respectively. Further, the EC50 in assay [2] is 0.0491 nM. The results for the Kd in assay [3] and in assay [4] were 2.43 nM and 0.000317 nM, respectively. Also, the koff in assay [3] stood at 0.000534 s⁻¹; in assay [4], 1.82e-07 s⁻¹. The kon in assay [3] was 220000 M⁻¹ s⁻¹; in assay [4], 574000 M⁻¹ s⁻¹.

The values above are taken from patent US20260109758A1 (BIOSION, published 2026).
